Experimental data reported in publication PMC3032679 (Journal of Translational Medicine, 2011).
Ends that are not written are not given here.

Key:
human recombinant Hsp90α [1] = target: T1, human recombinant Hsp90α (human, UniProt P07900 1-732); experiment: SPR; Biacore 3000; biotin-TPR peptide immobilised on streptavidin (SA) chip; Hsp90 or Hsp70 (0.3, 1 or 2 μM) as analyte, 30 μl/min, 25°C, HBS-EP buffer pH 7.4; conditions: both partners purified
T1 construct: Heat shock protein 90 alpha (Hsp90α), human, recombinant; also called heat shock protein 90; source: bought: Stressgen Bioreagents

human recombinant Hsp90α [2] = target: T1, human recombinant Hsp90α; experiment: SPR; competition; Hsp90 or Hsp70 (1 μM) preincubated with TPR peptide (14, 140 or 700 μM) passed over Hop, FKBP5 or PP5 immobilised on CM5 chip; signal without peptide = 100% binding; 25°C, HBS-EP buffer pH 7.4; conditions: both partners purified

Binder | Kd (human recombinant Hsp90α [1]) | binding result (human recombinant Hsp90α [2])
KAYARIGNSYFK (also: biotin-conjugated, position not given here, Immobilised on a streptavidin sensor chip by its biotin; also called biotin-TPR; immobilized TPR peptide; source: synthetic peptide) [Biotin-conjugated TPR peptide] | 1420 nM | 
human recombinant PP5 (natural protein, UniProt P53041 1-499, looked up, PP5 (protein phosphatase 5), human, recombinant; Abnova recombinant proteins often carry a GST tag (surmise); source: bought: Abnova) MAMAEGERTECAEPPRDEPPADGALKRAEELKTQANDYFKAKDYENAIKFYSQAIELNPSNAIYYGNRSLAYLRTECYGYALGDATRAIELDKKYIKGYYRRAASNMALGKFRAALRDYETVVKVKPHDKDAKMKYQECNKIVKQKAFERAIAGDEHKRSVVDSLDIESMTIEDEYSGPKLEDGKVTISFMKELMQWYKDQKKLHRKCAYQILVQVKEVLSKLSTLVETTLKETEKITVCGDTHGQFYDLLNIFELNGLPSETNPYIFNGDFVDRGSFSVEVILTLFGFKLLYPDHFHLLRGNHETDNMNQIYGFEGEVKAKYTAQMYELFSEVFEWLPLAQCINGKVLIMHGGLFSEDGVTLDDIRKIERNRQPPDSGPMCDLLWSDPQPQNGRSISKRGVSCQFGPDVTKAFLEENNLDYIIRSHEVKAEGYEVAHGGRCVTVFSAPNYCDQMGNKASYIHLQGSDLRPQFHQFTAVPHPNVKPMAYANTLLQLGMM |  | binds
KAYARIGNSYFK (also called designed TPR peptide; source: synthetic peptide) [TPR peptide (KAYARIGNSYFK)] |  | binds
